Measurements published in paper PMC3364985, “Staphylococcus aureus Surface Protein SdrE Binds Complement Regulator Factor H as an Immune Evasion Tactic” (PLoS ONE, 2012).

B1: complement regulatory protein factor H (natural protein)
chain: EDCNELPPRRNTEILTGSWSDQTYPEGTQAIYKCRPGYRSLGNVIMVCRKGEWVALNPLRKCQKRPCGHPGDTPFGTFTLTGGNVFEYGVKAVYTCNEGYQLLGEINYRECDTDGWTNDIPICEVVKCLPVTAPENGKIVSSAMEPDREYHFGQAVRFVCNSGYKIEGDEEMHCSDDGFWSKEKPKCVEISCKSPDVINGSPISQKIIYKENERFQYKCNMGYEYSERGDAVCTESGWRPLPSCEEKSCDNPYIPNGDYSPLRIKHRTGDEITYQCRNGFYPATRGNTAKCTSTGWIPAPRCTLKPCDYPDIKHGGLYHENMRRPYFPVAVGKYYSYYCDEHFETPSGSYWDHIHCTQDGWSPAVPCLRKCYFPYLENGYNQNYGRKFVQGKSIDVACHPGYALPKAQTTVTCMENGWSPTPRCIRVKTCSKSSIDIENGFISESQYTYALKEKAKYQCKLGYVTADGETSGSITCGKDGWSAQPTCIKSCDIPVFMNARTKNDFTWFKLNDTLDYECHDGYESNTGSTTGSIVCGYNGWSDLPICYERECELPKIDVHLVPDRKKDQYKVGEVLKFSCKPGFTIVGPNSVQCYHFGLSPDLPICKEQVQSCGPPPELLNGNVKEKTKEEYGHSEVVEYYCNPRFLMKGPNKIQCVDGEWTTLPVCIVEESTCGDIPELEHGWAQLSSPPYYYGDSVEFNCSESFTMIGHRSITCIHGVWTQLPQCVAIDKLKKCKSSNLIILEEHLKNKKEFDHNSNIRYRCRGKEGWIHTVCINGRWDPEVNCSMAQIQLCPPPPQIPNSHNMTTTLNYRDGEKVSVLCQENYLIQEGEEITCKDGRWQSIPLCVEKIPCSQPPQIEHGTINSSRSSQESYAHGTKLSYTCEGGFRISEENETTCYMGKWSSPPQCEGLPCKSPPEISHGVVAHMSDSYQYGEEVTYKCFEGFGIDGPAIAKCLGEKWSHPPSCIKTDCLSLPSFENAIPMGEKKDVYKAGEQVTYTCATYYKMDGASNVTCINSRWTGRPTCRDTSCVNPPTVQNAYIVSRQMSKYPSGERVRYQCRSPYEMFGDEEVMCLNGNWTEPPQCKDSTGKCGPPPPIDNGDITSFPLSVYAPASSVEYQCQNLYQLEGNKRITCRNGQWSEPPKCLHPCVISREIMENYNIALRWTAKQKLYSRTGESVEFVCKRGYRLSSRSHTLRTTCWDGKLEYPTCAKR
notes: complement factor H, human, 155 kDa plasma protein; the assay's purified field tells the two apart; also called fH; purified fH; source: bought: CompTech (purified fH)

Experiments:
[1] = target: recombinant SdrE (6×His-tagged A region of serine-aspartate repeat-containing protein E) (S. aureus); test: far-Western, overlay or dot blot; 5 µg of rSdrE, rClfA and BSA adsorbed to a PVDF membrane, blocked with 3% BSA/TBST, overlaid with purified fH (20 µg fH/10 ml block buffer) overnight; anti-fH, ECL, optical densitometry against a purified fH dilution series
recombinant SdrE (6×His-tagged A region of serine-aspartate repeat-containing protein E) (S. aureus), sequence (O86489 53-606 limits assumed): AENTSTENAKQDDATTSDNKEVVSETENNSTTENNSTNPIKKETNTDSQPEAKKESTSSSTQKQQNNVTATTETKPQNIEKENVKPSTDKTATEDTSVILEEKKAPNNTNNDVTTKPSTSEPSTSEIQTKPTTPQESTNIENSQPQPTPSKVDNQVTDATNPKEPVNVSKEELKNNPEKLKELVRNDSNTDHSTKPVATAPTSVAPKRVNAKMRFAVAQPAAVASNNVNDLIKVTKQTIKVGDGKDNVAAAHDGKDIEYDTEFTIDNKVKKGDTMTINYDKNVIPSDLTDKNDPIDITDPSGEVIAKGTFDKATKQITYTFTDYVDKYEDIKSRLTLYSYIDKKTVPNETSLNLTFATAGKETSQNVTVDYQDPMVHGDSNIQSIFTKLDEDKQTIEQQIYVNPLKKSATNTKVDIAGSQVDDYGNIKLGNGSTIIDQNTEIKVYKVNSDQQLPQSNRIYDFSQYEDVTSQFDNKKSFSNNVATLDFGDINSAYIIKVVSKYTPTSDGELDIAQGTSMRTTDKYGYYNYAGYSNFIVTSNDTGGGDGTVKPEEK

[2] = target: T1, SdrE expressed on the surface of Lactococcus lactis (pKS80-SdrE) (S. aureus, UniProt O86489 53-1132); test: binding to whole bacteria in solution, SDS extraction, fH ELISA; L. lactis (OD600 = 4.0) in GVBS^++ with various amounts of HI-serum, 1 hr, 37°C; bound proteins extracted with 2% SDS; fH ELISA with chicken antibodies specific for human fH; settings: partners not purified
T1 construct: Compared throughout with L. lactis carrying the empty vector pKS80; also called L. lactis (pKS80-SdrE); SdrE-expressing L. lactis; source: L. lactis, constitutively expressed from pKS80, on the bacterial surface
T1 sequence (O86489 53-1132): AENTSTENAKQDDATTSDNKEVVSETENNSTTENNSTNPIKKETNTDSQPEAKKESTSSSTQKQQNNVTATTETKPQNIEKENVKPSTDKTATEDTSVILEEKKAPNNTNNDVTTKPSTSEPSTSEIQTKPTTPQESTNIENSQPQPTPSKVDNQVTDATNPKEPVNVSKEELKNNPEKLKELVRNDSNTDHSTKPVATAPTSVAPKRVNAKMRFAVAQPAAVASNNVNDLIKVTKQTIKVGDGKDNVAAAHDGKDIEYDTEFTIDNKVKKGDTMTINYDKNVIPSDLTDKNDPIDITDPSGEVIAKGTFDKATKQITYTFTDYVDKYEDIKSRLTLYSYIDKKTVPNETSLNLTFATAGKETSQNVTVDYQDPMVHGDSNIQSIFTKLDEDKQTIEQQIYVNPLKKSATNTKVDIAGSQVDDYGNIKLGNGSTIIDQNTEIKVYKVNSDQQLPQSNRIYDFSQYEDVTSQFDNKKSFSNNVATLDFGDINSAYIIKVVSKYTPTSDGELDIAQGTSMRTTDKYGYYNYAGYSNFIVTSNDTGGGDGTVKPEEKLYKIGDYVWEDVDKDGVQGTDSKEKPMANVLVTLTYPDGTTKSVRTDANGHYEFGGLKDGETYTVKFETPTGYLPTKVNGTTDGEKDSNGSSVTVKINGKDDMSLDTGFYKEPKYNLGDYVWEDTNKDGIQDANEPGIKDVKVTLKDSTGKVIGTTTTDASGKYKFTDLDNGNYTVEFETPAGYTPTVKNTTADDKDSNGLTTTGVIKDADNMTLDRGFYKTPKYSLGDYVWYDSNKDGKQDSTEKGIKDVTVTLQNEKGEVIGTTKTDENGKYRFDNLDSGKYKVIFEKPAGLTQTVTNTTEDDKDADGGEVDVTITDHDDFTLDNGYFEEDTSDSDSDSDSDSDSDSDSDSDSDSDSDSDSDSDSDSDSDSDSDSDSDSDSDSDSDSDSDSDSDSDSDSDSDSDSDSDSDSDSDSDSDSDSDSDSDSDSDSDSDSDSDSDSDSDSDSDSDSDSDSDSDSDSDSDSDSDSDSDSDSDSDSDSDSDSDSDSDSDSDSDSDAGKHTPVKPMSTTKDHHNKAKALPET

[3] = target: T1, SdrE expressed on the surface of …; test: far-Western, overlay or dot blot; whole L. lactis (pKS80-SdrE or pKS80) immobilised on a PVDF membrane, overlaid with 5% HI-serum in 0.05% gelatin/PBST for 1 hr; anti-fH, optical densitometry against a serum dilution series; settings: partners not purified

| Molecule | amount of fH bound [1] [ng] | fold more serum fH bound than on L. lactis (pKS80) [2] [fold] | fold more serum fH bound than on L. lactis (pKS80) [3] [fold] |
| --- | --- | --- | --- |
| complement regulatory protein factor H (from UniProt P08603 19-1231) (natural protein) | 2.2 | – | – |
| B1 | – | ≤ 4 | 4 |
